Experimental data reported in paper PMC6212786.

T1: T4 DNA ligase DBD fragment (Bacteriophage T4 (ATCC), UniProt P00970 1-129)
T1 sequence: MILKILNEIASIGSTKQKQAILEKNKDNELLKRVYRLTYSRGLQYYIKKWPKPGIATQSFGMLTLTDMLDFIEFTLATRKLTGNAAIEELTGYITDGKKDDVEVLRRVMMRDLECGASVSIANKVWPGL

T2: T4 DNA ligase (gp30), full-length wild type (Bacteriophage T4 (ATCC), UniProt P00970 1-487)
T2 sequence: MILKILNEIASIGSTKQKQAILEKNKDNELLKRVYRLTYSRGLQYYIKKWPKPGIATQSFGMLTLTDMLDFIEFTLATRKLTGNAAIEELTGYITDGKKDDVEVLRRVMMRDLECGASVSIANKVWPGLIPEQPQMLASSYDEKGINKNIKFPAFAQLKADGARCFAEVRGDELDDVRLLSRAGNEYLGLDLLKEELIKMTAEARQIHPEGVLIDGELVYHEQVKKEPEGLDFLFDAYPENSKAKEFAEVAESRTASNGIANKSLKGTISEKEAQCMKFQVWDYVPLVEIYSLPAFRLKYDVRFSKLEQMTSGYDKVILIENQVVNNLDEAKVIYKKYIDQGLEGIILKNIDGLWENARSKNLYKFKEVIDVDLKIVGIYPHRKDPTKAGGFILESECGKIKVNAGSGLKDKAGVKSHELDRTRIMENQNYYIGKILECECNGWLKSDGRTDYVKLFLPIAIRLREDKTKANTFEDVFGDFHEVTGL

T3: T4 DNA ligase NTase-OB fragment (2CT) (Bacteriophage T4 (ATCC), UniProt P00970 136-487)
T3 sequence: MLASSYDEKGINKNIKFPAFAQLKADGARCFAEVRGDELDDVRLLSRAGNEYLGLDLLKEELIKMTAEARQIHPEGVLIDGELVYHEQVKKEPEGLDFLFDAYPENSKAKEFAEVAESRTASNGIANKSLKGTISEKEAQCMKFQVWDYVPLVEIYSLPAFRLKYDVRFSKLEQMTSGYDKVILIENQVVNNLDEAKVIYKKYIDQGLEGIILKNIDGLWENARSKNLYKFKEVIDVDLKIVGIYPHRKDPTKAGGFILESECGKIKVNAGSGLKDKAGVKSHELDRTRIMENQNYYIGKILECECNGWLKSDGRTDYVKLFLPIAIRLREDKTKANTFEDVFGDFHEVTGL


Columns and labels:
Assay in all cases: fluorescence anisotropy
[1] = target: Human DNA ligase 1 (hLig1) (human, UniProt P18858 233-919)
Sequence of Human DNA ligase 1 (hLig1) (P18858 233-919): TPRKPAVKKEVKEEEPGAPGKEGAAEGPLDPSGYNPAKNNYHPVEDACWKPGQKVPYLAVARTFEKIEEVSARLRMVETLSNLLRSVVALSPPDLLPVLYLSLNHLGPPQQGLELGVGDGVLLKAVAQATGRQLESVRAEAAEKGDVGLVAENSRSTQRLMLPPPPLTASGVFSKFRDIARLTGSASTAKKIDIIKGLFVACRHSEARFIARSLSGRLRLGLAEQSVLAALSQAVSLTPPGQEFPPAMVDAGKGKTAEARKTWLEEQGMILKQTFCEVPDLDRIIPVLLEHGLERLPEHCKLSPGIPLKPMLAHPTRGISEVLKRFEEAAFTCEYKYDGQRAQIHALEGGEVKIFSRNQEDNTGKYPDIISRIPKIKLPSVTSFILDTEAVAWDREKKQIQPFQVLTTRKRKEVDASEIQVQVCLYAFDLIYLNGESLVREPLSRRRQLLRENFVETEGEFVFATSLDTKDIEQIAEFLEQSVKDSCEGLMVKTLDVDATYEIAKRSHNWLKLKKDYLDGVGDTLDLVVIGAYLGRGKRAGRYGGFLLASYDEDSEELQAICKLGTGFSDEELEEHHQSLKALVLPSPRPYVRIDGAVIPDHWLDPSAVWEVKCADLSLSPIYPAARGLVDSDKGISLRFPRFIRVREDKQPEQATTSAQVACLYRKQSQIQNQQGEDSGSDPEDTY

[2] = target: T1, T4 DNA ligase DBD fragment
[3] = target: T2, T4 DNA ligase (gp30), full-length wild …
[4] = target: T3, T4 DNA ligase NTase-OB fragment (2CT)

Binder	Kd [1] [µM]	Kd [2] [µM]	Kd [3] [µM]	Kd [4] [µM]
nicked 32-bp dsDNA probe (dsDNA, 5'-phosphate on S6 at the nick) DNA 1: GGTAGCCACAGCCAGTCAGCCGATTGCGGGAC DNA 2: GTCCCGCAATCGGCTG DNA 3: ACTGGCTGTGGCTACC	7.7	138	6.3	23
intact (unnicked) 32-bp dsDNA probe (dsDNA) DNA 1: GGTAGCCACAGCCAGTCAGCCGATTGCGGGAC DNA 2: GTCCCGCAATCGGCTGACTGGCTGTGGCTACC	11	119	6.6	17
